Results on 83 variants are retold here after the RNAGym collection of RNA variant scans (doi:10.1093/molbev/msab373).

The chains are these.
B1: Azoarcus group I ribozyme (parent)
chain: GUGCCUUGCGCCGGGAAACCACGCAAGGGAUGGUGUCAAAUUCGGCGAAACCUAAGCGCCCGCCCGGGCGUAUGGCAACGCCGAGCCAAGCUUCGGCGCCUGCGCCGAUGAAGGUGUAGAGACUAGACGGCACCCACCUAAGGCAAACGCUAUGGUGAAGGCAUAGUCCAGGGAGUGGCGAAAGUCACACAAACCGG

The variants in this data set derive from B1. The data set can be described thus: reverse-splicing fitness (ratio to wild type); higher = more active; in vitro selection; Mg2+ level not given. In outline:
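An in vitro group I ribozyme library with randomized positions was T7-transcribed and gel-purified. In triplicate, 10 pmol RNA in EPPS pH 7.5 was reacted with 50 pmoles of a 30-nt RNA substrate for 1 h at 37 °C across several added MgCl2 levels (1–48 mM), then stopped with EDTA. Products were reverse transcribed from a substrate-complementary primer, PCR-amplified and sequenced (HiSeq 4000). Fitness is a variant's read proportion after selection over that before, normalised to wild type.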
For the variant C82A A111U A120U A145G C150U C169U, the reverse-splicing fitness stood at 0.00663.
To C82A A111U A120U A145G C150U C169G belongs 0.00728.
To C82A A111U A120U A145G C150U C169A belongs 0.00728.
On to C82A A111U A120U A145G C150A C169A U176A, for which the reverse-splicing fitness came out at 0.0108.
The same measure for C82A A111U A120U A145G C150A C169A U176C: 0.00627; for C82A A111U A120U A145G C150A C169A U176G: 0.00392; for C82A A111U A120G C169A U176C: 0.0218.
The same measure for C82A A111U A120G C169A U176A: 0.0188; for C82A A111U A120G C169A U176G: 0.00506.
The same measure for C82A A111U A120U A145C C150G C169U U176A: 0.00314; for C82A A111U A120U A145C C150G C169U U176G: 0.00301.
On to C82A A111U A120U A145C C150G C169U U176C, for which the reverse-splicing fitness turned out to be 0.00285.
The same measure for C82A A111U A120U A145C C150G U176C: 0.00415; for C82A A111U A120U A145C C150G U176G: 0.00265.
On to C82A A111U A120U A145C C150G U176A, for which the reverse-splicing fitness came out at 0.00326.
With C82A A111U A120U A145U C169A U176C, the reverse-splicing fitness was found to be 0.00197.
To C82A A111U A120U A145U C169A U176G belongs 0.00222; to C82A A111U A120U A145U C169A U176A, 0.00283; to C82A A111U A120U A145U C169U U176A, 0.00289.
Regarding C82A A111U A120U A145U C169U U176C, the reverse-splicing fitness is 0.00325.
The same measure for C82A A111U A120U A145U C169U U176G: 0.00208.
As for C82A A111U A145C C150G C169U, the reverse-splicing fitness turned out to be 0.00999.
The same measure for C82A A111U A145C C150G C169A: 0.00825.
The same measure for C82A A111U A145C C150G C169G: 0.00746; for C82A A111U A120U A145U C150G C169A: 0.00467; for C82A A111U A120U A145U C150G C169U: 0.00332.
The same measure for C82A A111U A120U A145U C150G C169G: 0.00379; for C82A A111U A120U A145U C150G C169A U176G: 0.00285.
For the variant C82A A111U A120U A145U C150G C169A U176C, the reverse-splicing fitness came out at 0.00325.
In the case of C82A A111U A120U A145U C150G C169A U176A, the reverse-splicing fitness was 0.00398.
To C82A A111U A120U C150A C169U belongs 0.00495; to C82A A111U A120U C150A C169G, 0.00511.
The same measure for C82A A111U A120U C150A C169A: 0.00615.
Consider C82A A111U A120U A145C C169U, for which the reverse-splicing fitness worked out at 0.00338.
To C82A A111U A120U A145C C169G belongs 0.00342; to C82A A111U A120U A145C C169A, 0.00224; to C82A A111U A120U A145U C150A C169G U176C, 0.00291.
The same measure for C82A A111U A120U A145U C150A C169G U176A: 0.00333.
The same measure for C82A A111U A120U A145U C150A C169G U176G: 0.00203; for C82A A111U A120U A145C C150U: 0.00779; for C82A A111U A120U A145C C150A: 0.00524.
Take C82A A111U A120U A145C C150G: the reverse-splicing fitness worked out at 0.0059.
On to C82A A111U A120U A145C C150A U176C, for which the reverse-splicing fitness stood at 0.00426.
To C82A A111U A120U A145C C150A U176G belongs 0.00255; to C82A A111U A120U A145C C150A U176A, 0.00368; to C82A A111U A145C C150G, 0.0267.
The same measure for C82A A111U A145C C150A: 0.0156; for C82A A111U A145C C150U: 0.0537; for C82A A111U A120U A145U U176G: 0.00335.
The same measure for C82A A111U A120U A145U U176A: 0.0073.
As for C82A A111U A120U A145U U176C, the reverse-splicing fitness is 0.0117.
The same measure for C82A A111U A120U A145U C150G U176G: 0.00272; for C82A A111U A120U A145U C150G U176A: 0.00344.
Regarding C82A A111U A120U A145U C150G U176C, the reverse-splicing fitness was determined as 0.00545.
On to C82A A111U A120G C150U U176G, for which the reverse-splicing fitness amounted to 0.00825.
The same measure for C82A A111U A120G C150U U176A: 0.0109; for C82A A111U A120G C150U U176C: 0.0178.
To C82A A111U A120U C150A C169G U176A belongs 0.00956.
To C82A A111U A120U C150A C169G U176G belongs 0.00222; to C82A A111U A120U C150A C169G U176C, 0.00511.
As to C82A A111U A120U A145U C150G C169G U176A, the reverse-splicing fitness is 0.00327.
The same measure for C82A A111U A120U A145U C150G C169G U176G: 0.00241.
The same measure for C82A A111U A120U A145U C150G C169G U176C: 0.00281; for C82A A111U A120U A145U C169G U176C: 0.00323; for C82A A111U A120U A145U C169G U176G: 0.00199.
Take C82A A111U A120U A145U C169G U176A: the reverse-splicing fitness came to 0.00291.
For the variant C82A A111U A120U A145U C150U C169A U176C, the reverse-splicing fitness came to 0.00305.
The same measure for C82A A111U A120U A145U C150U C169A U176G: 0.00243; for C82A A111U A120U A145U C150U C169A U176A: 0.00366.
To C82A A111U A120U C150U C169G U176C belongs 0.00496; to C82A A111U A120U C150U C169G U176A, 0.00965; to C82A A111U A120U C150U C169G U176G, 0.00271.
For C82A A111U A120U A145G C150G C169U U176A, the reverse-splicing fitness worked out at 0.00862.
The same measure for C82A A111U A120U A145G C150G C169U U176G: 0.00513.
As to C82A A111U A120U A145G C150G C169U U176C, the reverse-splicing fitness was determined as 0.0089.
The same measure for C82A A111U A120U C150G U176A: 0.00499; for C82A A111U A120U C150G U176G: 0.00265.
Turning to C82A A111U A120U C150G U176C, the reverse-splicing fitness worked out at 0.00606.
The same measure for C82A A111U A145C: 0.28.
The same measure for C82A A111U A120U A145G C150A U176A: 0.00879.
The same measure for C82A A111U A120U A145G C150A U176G: 0.00328; for C82A A111U A120U A145G C150A U176C: 0.00989; for C82A A111U A145C C150A C169G U176G: 0.00831.
